Key:
[1] = target: Δ33-D210A-APE1 (Homo sapiens, UniProt P27695 34-318, D210A;del1-33); test: fluorescence anisotropy; 10 mM Mg2+, 50 mM K+; 20 mM Tris pH 7.4, 50 mM KOAc (or 140 mM K+ / 50 mM Li+), 0, 1 or 10 mM Mg(OAc)2, 1 mM DTT, 22 °C, 100 nM FAM-DNA, APE1 0-5000 nM; details: protein: recombinant; tags: His (pET28HIS-hAPE1); label: 5' FAM; intramolecular parallel G4 in K+; unfolded in Li+
[2] = target: T1, D210A-APE1 (Homo sapiens, UniProt P27695 1-318, D210A); test: as above; details: protein: recombinant; tags: His (pET28HIS-hAPE1); label: 5' FAM; intramolecular parallel G4 in K+; unfolded in Li+
T1 sequence (P27695 whole entry D210A): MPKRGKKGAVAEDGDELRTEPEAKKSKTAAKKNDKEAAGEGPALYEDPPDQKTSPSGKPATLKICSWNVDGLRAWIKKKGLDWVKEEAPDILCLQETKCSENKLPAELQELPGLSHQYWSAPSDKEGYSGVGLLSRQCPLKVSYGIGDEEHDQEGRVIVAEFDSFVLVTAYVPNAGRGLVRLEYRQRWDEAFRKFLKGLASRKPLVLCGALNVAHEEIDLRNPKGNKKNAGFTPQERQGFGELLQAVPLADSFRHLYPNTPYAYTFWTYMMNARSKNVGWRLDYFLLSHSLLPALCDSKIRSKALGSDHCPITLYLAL

[3] = target: APE1 (WT) (Homo sapiens, UniProt P27695 1-318); test: fluorescence anisotropy; 0 Mg2+, EDTA, 50 mM K+; 20 mM Tris pH 7.4, 50 mM KOAc (or 140 mM K+ / 50 mM Li+), 0, 1 or 10 mM Mg(OAc)2, 1 mM DTT, 22 °C, 100 nM FAM-DNA, APE1 0-5000 nM; details: protein: recombinant; tags: His (pET28HIS-hAPE1, Addgene 70757); label: 5' FAM; intramolecular parallel G4 in K+; unfolded in Li+
APE1 (WT), sequence (P27695 whole entry): as the sequence (P27695 whole entry D210A) above, with A210D counted along it

[4] = target: T1, D210A-APE1; test: fluorescence anisotropy; 140 mM K+; 20 mM Tris pH 7.4, 50 mM KOAc (or 140 mM K+ / 50 mM Li+), 0, 1 or 10 mM Mg(OAc)2, 1 mM DTT, 22 °C, 100 nM FAM-DNA, APE1 0-5000 nM; details: protein: recombinant; tags: His (pET28HIS-hAPE1); label: 5' FAM; intramolecular parallel G4 in K+; unfolded in Li+

Δ33-D210A-APE1, sequence (P27695 34-318 D210A): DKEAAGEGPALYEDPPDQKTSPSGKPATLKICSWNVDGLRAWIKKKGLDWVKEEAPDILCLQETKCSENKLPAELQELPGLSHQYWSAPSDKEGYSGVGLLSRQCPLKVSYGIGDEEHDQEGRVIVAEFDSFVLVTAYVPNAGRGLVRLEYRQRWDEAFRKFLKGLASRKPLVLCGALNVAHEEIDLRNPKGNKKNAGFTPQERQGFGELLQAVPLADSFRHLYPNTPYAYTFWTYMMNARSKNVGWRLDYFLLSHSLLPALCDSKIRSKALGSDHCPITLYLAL

## CGGGGCGGGCCGGGGGCGGGGT (structured_DNA) [VEGF-4]
[1]
  Kd: 230 ± 40 nM
[2]
  Kd: 55 ± 4 nM
[3]
  Kd: 190 ± 50 nM
[4]
  Kd: 20 nM
